{"source": "patent US20060188874A1", "about": "“Methods and compositions for colorimetrically assessing peptide characteristics” (priority 2004, published 2006)", "format_in_all_cases": "physicochemical", "key": {"[1]": {"assay": "Dissolution test of peptide sample (pH raised stepwise until dissolved)", "experimental": "For example, a simple dissolution test can be used to evaluate the solubility characteristics of a peptide sample. The test is conveniently carried out at a temperature in the range of from about 20° C. to about 27° C., preferably about 25° C. From about 0.1 to about 0.3 grams of peptide is combined with about 1 to about 3 ml of an aqueous medium. The medium may be deionized water. In the case of T-20 or T-1249, these peptides are mildly acetic. Consequently, the medium optionally may include some initial amount base, e.g., about 17 mM Na2CO3 or the like, to provide a suitable initial pH. […] The mixture is rapidly stirred for 5 to 10 minutes between additional increments. Solids adhering to the sides of the testing vessel should be re-suspended. Rapid mixing should be maintained throughout. Results include observations regarding the clarity of the mixture, time required for dissolution, concentration and amount of caustic used, final pH upon dissolution (if this occurs below pH 9), and the like.\nFor purposes of the invention, peptides such as T-20, T-1249, and GLP-1, as well as counterparts of these, may be deemed to be in a more desired, deaggregated form if dissolution in accordance with this test occurs at a pH of less than about 8, preferably less than about 7.5. If dissolution occurs at a pH of greater than about 7.5, more preferably greater than about 8, the peptide is deemed to be in a less desired aggregated form. This helps to ensure the practicality of handling the peptide during subsequent processing and handling."}, "[2]": {"assay": "Molar mass by MALS light scattering (apparent MW as measure of aggregation)", "conditions": "solution sample taken during acid addition at pH 9.3, re-work of Sample A", "from_the_text": "Molecular weight analysis is also a useful technique to assess beta sheet structure in a peptide. Depending upon the technique and equipment used, the molecular weight may be the weight average molecular weight, number average molecular weight, actual molecular weight, or average molecular weight. Assessment of average molecular weight or weight average molecular weight are preferred. A peptide formed from a known sequence and number of amino acids generally has a theoretical molecular weight that is known with a fair degree of certainty. The theoretical molecular weight can be calculated from the theoretical peptide structure. The molecular weight of a peptide sample can be determined through any suitable technique such as light scattering analysis. However, the amount of beta sheet structure of a sample impacts its measured molecular weight. Generally, the measured molecular weight tends to be higher with increasing amounts of beta sheet structure being present.\nAs an example, the T-1249 peptide has a theoretical molecular weight of about 5000. The measured, apparent molecular weight of actual samples of the peptide may range from 6000 to 100,000 or even more. […]\nSample A was a portion of a highly aggregated batch of T-1249 peptide having an average molecular weight of 98,890±6660. The molar mass was determined using MALS light scattering. […]"}, "[3]": {"assay": "Congo Red colorimetric analysis of beta sheet aggregation", "conditions": "aggregated T-1249 peptide added to initially orange red solution", "experimental": "The following procedure is used to prepare a Congo Red solution suitable for assessing, qualitatively and/or quantitatively, via colorimetric analysis the solubility and formulating characteristics of a peptide sample. A 50 mM solution of sodium phosphate buffer, pH 7.2 is prepared and filtered through a 0.22 μm Polyethersulfone membrane. 25 μM of Congo Red is dissolved in the sodium phosphate buffer with sonication. The mixture also included about 1% by volume ethanol (This can be 95% ethanol or absolute ethanol.) The solution is orange-colored.\nSonication is used until the peptide is dissolved\nThe peptide/Congo Red solution is incubated at ambient temperature for 3-4 hours.\nAccording to a preferred procedure, a Hewlett Packard 8453 spectrophotometer is used to obtain a blank, reference spectrum of the 50 mM solution of sodium phosphate buffer prepared in Example 6. Using the same instrument, a spectrum for the 25 μM Congo Red solution is measured over a suitable range, e.g., from about 300 nm to about 650 nm. […] If this difference is greater than an empirically determined quality control specification, the sample can be deemed to fail. […]"}, "[4]": {"conditions": "precipitated with 18% by volume acetonitrile"}}}
{"substance": "Acetyl-WQEWEQKITALLEQAQIQQE KNEYELQKLDKWASLWEWF-NH2 (Ac-WQEWEQKITALLEQAQIQQEKNEYELQKLDKWASLWEWF-NH2) [Sample T-1249, ID NO; 20]", "values": [{"measurement": "dissolution behaviour", "setting": "[1]; precipitated with 14% by volume acetonitrile", "value": "dissolved to some degree at a pH of 6.95 but not completely"}, {"measurement": "dissolution time", "setting": "[1]; [4]", "value": 1, "unit": "h"}, {"measurement": "final pH at dissolution", "setting": "[1]; [4]", "value": 6.69}, {"measurement": "turbidity appearance at dissolution", "setting": "[1]; [4]", "value": "very faint turbidity"}, {"measurement": "dissolution pH", "setting": "[1]; precipitated with 20 to 22 volume percent acetonitrile", "value": "around 9"}, {"measurement": "dissolution behaviour", "setting": "[1]; precipitated with no co-solvent, after 14 to 18 hours, pH of 8", "value": "dissolved very slowly with high turbidity"}, {"measurement": "molar mass by the MALS method", "setting": "[2]", "value": 6500}, {"measurement": "colour change of Congo Red solution", "setting": "[3]", "value": "deep salmon-pink color"}]}
